These results are taken from publication PMC6975058.

Assay [1] addresses trastuzumab light chain produced alone in HEK293 (in vivo folded LC). Put plainly: denaturing, non-reducing SDS-PAGE; MiniProtean TGX Stain-free gels 4-20%, band densitometry; shows only disulfide-linked species.
The target is the same in assay [2]. Kind of assay: SEC; SEC-HPLC under native conditions, Zenix-C SEC-300, mobile phase PBS, 0.35 ml/min, absorbance at 214 nm; the isolated chain alone. A general note: In gel filtration, larger molecules generally elute earlier.
Assay [3] deals with trastuzumab heavy chain produced alone in HEK293 (in vivo folded HC). Kind of assay: denaturing, non-reducing SDS-PAGE; MiniProtean TGX Stain-free gels 4-20%, band densitometry; shows only disulfide-linked species.
Assay [4] has as its target trastuzumab light chain, refolded in vitro by slow dialysis. Kind of assay: SEC; SEC-HPLC under native conditions, Zenix-C SEC-300, mobile phase PBS, 0.35 ml/min, absorbance at 214 nm; the isolated chain alone.

In turn, “trastuzumab light chain produced alone in HEK293 (in vivo folded LC) (domain or fragment)” returned a percent of LC in the 42 KDa band under denaturing conditions in assay [1] of 55%. Further, the stoichiometry N in assay [2] was found to be 2.

In assay [3], “trastuzumab heavy chain produced alone in HEK293 (in vivo folded HC) (domain or fragment)” displayed a stoichiometry N of 2.

“trastuzumab light chain, refolded in vitro by slow dialysis (domain or fragment)” returned a stoichiometry N in assay [4] of 2.

A word on the stoichiometry N: it is the number of molecules, sites or subunits per partner or assembly.
